According to patent EP4748858A1 (Nanjing Probio Biotech Co., Ltd., dated 2026):

T1: recombinant protein of the human CD7 extracellular domain, CD7-His (human, UniProt P09564 26-180)
T1 construct: range 25-645; also called human CD7-His protein; recombinant human CD7; not shown: His protein tag
T1 sequence (looked up): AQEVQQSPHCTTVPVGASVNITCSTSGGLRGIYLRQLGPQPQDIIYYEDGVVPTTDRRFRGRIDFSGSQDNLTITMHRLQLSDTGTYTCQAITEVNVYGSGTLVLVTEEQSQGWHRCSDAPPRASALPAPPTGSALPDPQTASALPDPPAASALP

T2: mouse CD7 (ACROBiosystems, CD7-M52H3) (mouse, UniProt P50283 24-150)
T2 construct: Bought recombinant protein; also called Mouse CD7 protein
T2 sequence (looked up): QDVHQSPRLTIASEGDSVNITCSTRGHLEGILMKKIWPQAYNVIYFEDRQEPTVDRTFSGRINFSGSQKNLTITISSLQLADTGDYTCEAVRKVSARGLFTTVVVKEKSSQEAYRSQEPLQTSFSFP


Experiments:
[1] = biological target: T1, recombinant protein of the human CD7 …; assay: indirect ELISA, plate coated with 1 µg/ml human CD7, anti-human IgG Fc-HRP
[2] = biological target: T1, recombinant protein of the human CD7 …; assay: SPR Biacore T200, antibody captured via Fc, human CD7 as analyte
[3] = biological target: T2, mouse CD7 (ACROBiosystems, CD7-M52H3); assay: indirect ELISA, plate coated with 1 µg/ml mouse CD7
[4] = biological target: T3, monkey CD7 (Sino Biological, 90993-H08H) (monkey); assay: indirect ELISA, plate coated with 1 µg/ml monkey CD7, anti-human IgG Fc-HRP
T3 construct: Bought recombinant protein; also called Monkey CD7 protein

EC50 [1] [pM]	Kd [2] [pM]	koff [2] [s⁻¹]	kon [2] [M⁻¹ s⁻¹]	EC50 [4] [pM]	Binder	binding result [3]
209	76.5	2.3e-05	301000	–	AHP19509 (Fc fusion, Alpaca VHH expressed as fusion to human IgG1 Fc; also called AHP19509-VHH; not shown: human IgG1 Fc of expression vector pcDNA3.4-Fc (HuIgG1)) QVKLEESGGGLVQAGGSLRLSCAASGGTFNRYTMGWFRQAPGKEREFVAAISWSGGSTDYADSVKGRFTISRDNTKNTVYLQMNSLKPEDAAVYYCDTDRMPYRPVAAGILSWEANWGQGTQVTVSS	no binding (tested: 8 µg/ml (about 100 nM))
278	120	6.03e-05	502000	7030	AHP19484 (Fc fusion, Alpaca VHH expressed as fusion to human IgG1 Fc; also called AHP19484-VHH; not shown: human IgG1 Fc of expression vector pcDNA3.4-Fc (HuIgG1)) QVKLEESGGGLVQPGGSLRLSCVASGSSFHFAFMGWYRQAPGKQRELVADISPGNSTNYADPVKGRFVISRDNAKNTVYLQMNSLKPEDTAVYFCRDLRSWGAWGRGTQVTVSS	no binding (tested: 8 µg/ml (about 100 nM))
168	289	7.73e-05	268000	–	AHP19485 (Fc fusion, Alpaca VHH expressed as fusion to human IgG1 Fc; also called AHP19485-VHH; not shown: human IgG1 Fc of expression vector pcDNA3.4-Fc (HuIgG1)) EVQLVESGGGLVQPGGSLRLSCASSERIFSIHAMGWYRQAPGKQRELVASITIGGSTHYADSVKGRFTISRDNAKNTVYLHMNSLKPEDTAVYYCNSMLLAGTVGGSWGQGTQVTVSS	no binding (tested: 8 µg/ml (about 100 nM))
